According to IntAct's records for PubMed 23969831:

B1: Protrudin (Homo sapiens), Q5T4F4 (parent)
chain: MQTSEREGSGPELSPSVMPEAPLESPPFPTKSPAFDLFNLVLSYKRLEIYLEPLKDAGDGVRYLLRWQMPLCSLLTCLGLNVLFLTLNEGAWYSVGALMISVPALLGYLQEVCRARLPDSELMRRKYHSVRQEDLQRGRLSRPEAVAEVKSFLIQLEAFLSRLCCTCEAAYRVLHWENPVVSSQFYGALLGTVCMLYLLPLCWVLTLLNSTLFLGNVEFFRVVSEYRASLQQRMNPKQEEHAFESPPPPDVGGKDGLMDSTPALTPTEDLTPGSVEEAEEAEPDEEFKDAIEETHLVVLEDDEGAPCPAEDELALQDNGFLSKNEVLRSKVSRLTERLRKRYPTNNFGNCTGCSATFSVLKKRRSCSNCGNSFCSRCCSFKVPKSSMGATAPEAQRETVFVCASCNQTLSK
B2: Atlastin-1 (Homo sapiens), Q8WXF7 (parent)
chain: MAKNRRDRNSWGGFSEKTYEWSSEEEEPVKKAGPVQVLIVKDDHSFELDETALNRILLSEAVRDKEVVAVSVAGAFRKGKSFLMDFMLRYMYNQESVDWVGDYNEPLTGFSWRGGSERETTGIQIWSEIFLINKPDGKKVAVLLMDTQGTFDSQSTLRDSATVFALSTMISSIQVYNLSQNVQEDDLQHLQLFTEYGRLAMEETFLKPFQSLIFLVRDWSFPYEFSYGADGGAKFLEKRLKVSGNQHEELQNVRKHIHSCFTNISCFLLPHPGLKVATNPNFDGKLKEIDDEFIKNLKILIPWLLSPESLDIKEINGNKITCRGLVEYFKAYIKIYQGEELPHPKSMLQATAEANNLAAVATAKDTYNKKMEEICGGDKPFLAPNDLQTKHLQLKEESVKLFRGVKKMGGEEFSRRYLQQLESEIDELYIQYIKHNDSKNIFHAARTPATLFVVIFITYVIAGVTGFIGLDIIASLCNMIMGLTLITLCTWAYIRYSGEYRELGAVIDQVAAALWDQGSTNEALYKLYSAAATHRHLYHQAFPTPKSESTEQSEKKKM
partner: B1 chain
B3: Protrudin (Homo sapiens), Q5T4F4 (parent)
chain: B1 chain
partner: B2 chain

Variants of: B1
Details: with reep5_human REEP5, Q00765
Chain of reep5_human REEP5, Q00765 (Q00765 whole entry): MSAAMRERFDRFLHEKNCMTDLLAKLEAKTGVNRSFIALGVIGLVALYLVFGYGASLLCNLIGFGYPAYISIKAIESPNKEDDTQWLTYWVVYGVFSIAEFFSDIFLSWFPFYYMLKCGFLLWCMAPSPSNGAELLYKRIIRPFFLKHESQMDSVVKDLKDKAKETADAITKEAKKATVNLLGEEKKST

| Variant | effect of a mutation on the interaction |
| --- | --- |
| MQTSEREGSGPELSPSVMPEAPLESPPFPTKSPAFDLFNLVLSYKRLEIYLEPLKDAGDGVRYLLRWQMPLCSLLTCLGLNVLFLTLNEGAWYSVGALMISVPALLGYLQEVCRARLPDSELMRRKYHSVRQEDLQRGRLSRPEAVAEVKSFLIQLEAFLSRLCCTCEAAYRVLHWENPVVSSQFYGALLGTVCMLYLLALCWVLTLLNSTLFLGNVEFFRVVSEYRASLQQRMNPKQEEHAFESPPPPDVGGKDGLMDSTPALTPTEDLTPGSVEEAEEAEPDEEFKDAIEETHLVVLEDDEGAPCPAEDELALQDNGFLSKNEVLRSKVSRLTERLRKRYPTNNFGNCTGCSATFSVLKKRRSCSNCGNSFCSRCCSFKVPKSSMGATAPEAQRETVFVCASCNQTLSK [P200A] | decreasing interaction strength |
| MQTSEREGSGPELSPSVMPEAPLESPPFPTKSPAFDLFNLVLSYKRLEIYLEPLKDAGDGVRYLLRWQMPLCSLLTCLGLNVLFLTLNEGAWYSVGALMISVPALLGYLQEVCRARLPDSELMRRKYHSVRQEDLQRGRLSRPEAVAEVKSFLIQLEAFLSRLCCTCEAAYRVLHWENPVVSSQFYGALLVTVCMLYLLPLCWVLTLLNSTLFLGNVEFFRVVSEYRASLQQRMNPKQEEHAFESPPPPDVGGKDGLMDSTPALTPTEDLTPGSVEEAEEAEPDEEFKDAIEETHLVVLEDDEGAPCPAEDELALQDNGFLSKNEVLRSKVSRLTERLRKRYPTNNFGNCTGCSATFSVLKKRRSCSNCGNSFCSRCCSFKVPKSSMGATAPEAQRETVFVCASCNQTLSK [G191V] | with no effect |

Variants of: B2
Details: with zfy27_human ZFYVE27, Q5T4F4

| Variant | effect of a mutation on the interaction |
| --- | --- |
| MAKNRRDRNSWGGFSEKTYEWSSEEEEPVKKAGPVQVLIVKDDHSFELDETALNRILLSEAVRDKEVVAVSVAGAFRKGKSFLMDFMLRYMYNQESVDWVGDYNEPLTGFSWRGGSERETTGIQIWSEIFLINKPDGKKVAVLLMDTQGTFDSQSTLRDSATVFALSTMISSIQVYNLSQNVQEDDLQHLQLFTEYGRLAMEETFLKPFQSLIFLVRDWSFPYEFSYGADGGAKFLEKRLKVSGNQHEELQNVRKHIHSCFTNISCFLLPHPGLKVATNPNFDGKLKEIDDEFIKNLKILIPWLLSPESLDIKEINGNKITCRGLVEYFKAYIKIYQGEELPHPKSMLQATAEANNLAAVATAKDTYNKKMEEICGGDKPFLAPNDLQTKHLQLKEESVKLFRGVKKMGGEEFSRRYLQQLESEIDELYIQYIKHNDSKNIFHAARTPATLFVVIFITYVIAGVTGFIGLDIIASLCNMIMGLTLITLCTWAYIWYSGEYRELGAVIDQVAAALWDQGSTNEALYKLYSAAATHRHLYHQAFPTPKSESTEQSEKKKM [R495W] | with no effect |
| MAKNRRDRNSWGGFSEKTYEWSSEEEEPVKKAGPVQVLIVKDDHSFELDETALNRILLSEAVRDKEVVAVSVAGAFRKGKSFLMDFMLRYMYNQESVDWVGDYNEPLTGFSWRGGSERETTGIQIWSEIFLINKPDGKKVAVLLMDTQGTFDSQSTLRDSATVFALSTMISSIQVYNLSQNVQEDDLQHLQLFTEYGRLAMEETFLKPFQSLIFLVRDWSFPYEFSYGADGGAKFLEKRLKVSGNQHEELQNVRKHIHSCFTNISCFLLPHPGLKVATNPNFDGKLKEIDDEFIKNLKILIPWLLSPESLDIKEINGNKITCRGLVEYFKAYIKIYQGEELPHPKSMLQATAEANNLAAVATAKDTYNKKMEEICGGDKPFLAPNDLQTKHLQLKEESVKLFRGVKKMGGEEFSRRYLQQLESEIDELYIQYIKHNDSKNIFHAARTPATLFVVIFITYVIAGVTGFIGLDIIASLCNMIMGLTLITLCTWAYIRYSGEYRELGAVIDQVAAALWDQGATNEALYKLYSAAATHRHLYHQAFPTPKSESTEQSEKKKM [S519A] | with no effect |
| MAKNRRDRNSWGGFSEKTYEWSSEEEEPVKKAGPVQVLIVKDDHSFELDETALNRILLSEAVRDKEVVAVSVAGAFRKGASFLMDFMLRYMYNQESVDWVGDYNEPLTGFSWRGGSERETTGIQIWSEIFLINKPDGKKVAVLLMDTQGTFDSQSTLRDSATVFALSTMISSIQVYNLSQNVQEDDLQHLQLFTEYGRLAMEETFLKPFQSLIFLVRDWSFPYEFSYGADGGAKFLEKRLKVSGNQHEELQNVRKHIHSCFTNISCFLLPHPGLKVATNPNFDGKLKEIDDEFIKNLKILIPWLLSPESLDIKEINGNKITCRGLVEYFKAYIKIYQGEELPHPKSMLQATAEANNLAAVATAKDTYNKKMEEICGGDKPFLAPNDLQTKHLQLKEESVKLFRGVKKMGGEEFSRRYLQQLESEIDELYIQYIKHNDSKNIFHAARTPATLFVVIFITYVIAGVTGFIGLDIIASLCNMIMGLTLITLCTWAYIRYSGEYRELGAVIDQVAAALWDQGSTNEALYKLYSAAATHRHLYHQAFPTPKSESTEQSEKKKM [K80A] | with no effect |
| MAKNRRDRNSWGGFSEKTYEWSSEEEEPVKKAGPVQVLIVKDDHSFELDETALNRILLSEAVRDKEVVAVSVAGAFRKGKSFLMDFMLRYMYNQESVDWVGDYNEPLTGFSWRGGSERETTGIQIWSEIFLINKPDGKKVAVLLMDTQGTFDSQSTLRDSATVFALSTMISSIQVYNLSQNVQEDDLQHLQLFTEYGRLAMEETFLKPFQSLIFLVRDWSFPYEFSYGADGGAKFLEKRLKVSGNQHEELQNVRKHIHSCFTNISCFLLPHPGLKVATNPNFDGKLKEIDDEFIKNLKILIPWLLSPESLDIKEINGNKITCRGLVEYFKAYIKIYQGEELPHPKSMLQATAEANNLAAVATAKDTYNKKMEEICGGDKPFLAPNDLQTKHLQLKEESVKLFRGVKKMGGEEFSRRYLQQLESEIDELYIQYIKHNDSKNIFHAARTPATLFVVIFITYVIAGVTGFIALDIIASLCNMIMGLTLITLCTWAYIRYSGEYRELGAVIDQVAAALWDQGSTNEALYKLYSAAATHRHLYHQAFPTPKSESTEQSEKKKM [G469A] | with no effect |

Variants of: B3
Details: with atla1_human ATL1, Q8WXF7

| Variant | effect of a mutation on the interaction |
| --- | --- |
| MQTSEREGSGPELSPSVMPEAPLESPPFPTKSPAFDLFNLVLSYKRLEIYLEPLKDAGDGVRYLLRWQMPLCSLLTCLGLNVLFLTLNEGAWYSVGALMISVPALLGYLQEVCRARLPDSELMRRKYHSVRQEDLQRGRLSRPEAVAEVKSFLIQLEAFLSRLCCTCEAAYRVLHWENPVVSSQFYGALLVTVCMLYLLPLCWVLTLLNSTLFLGNVEFFRVVSEYRASLQQRMNPKQEEHAFESPPPPDVGGKDGLMDSTPALTPTEDLTPGSVEEAEEAEPDEEFKDAIEETHLVVLEDDEGAPCPAEDELALQDNGFLSKNEVLRSKVSRLTERLRKRYPTNNFGNCTGCSATFSVLKKRRSCSNCGNSFCSRCCSFKVPKSSMGATAPEAQRETVFVCASCNQTLSK [G191V] | with no effect |
